Substitutions are numbered along the chain they refer to. Numbers in names are those of the source.
T1: human FcγRIIa H131 (human, UniProt P12318 34-317, limits assumed)
T1 construct: FACS implies display on cells, but the methods name no FcγRIIa cell line; also called huFcγRIIa H131
T1 sequence (looked up): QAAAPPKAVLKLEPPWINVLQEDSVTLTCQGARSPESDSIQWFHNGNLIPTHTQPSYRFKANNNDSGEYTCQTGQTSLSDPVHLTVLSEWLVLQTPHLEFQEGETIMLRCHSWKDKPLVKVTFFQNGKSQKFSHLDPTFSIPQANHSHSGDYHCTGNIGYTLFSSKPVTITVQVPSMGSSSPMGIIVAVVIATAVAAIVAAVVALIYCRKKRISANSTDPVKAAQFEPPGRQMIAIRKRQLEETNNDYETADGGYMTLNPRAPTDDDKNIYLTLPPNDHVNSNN

T2: human FcγRIIa R131 (human, UniProt P12318 34-317, limits assumed)
T2 construct: FACS implies display on cells, but the methods name no FcγRIIa cell line; also called huFcγRIIa R131
T2 sequence (looked up): T1 sequence (looked up) with H134R

B1: mAb1-ADLE (antibody)
chain 1: QVQLVQSGAEVKKPGASVKVSCKASGYSFTSYGISWVRQAPGQGLEWMGWISTYKGYTQYAQNFQGRVTITTDTPATTVYMELRSLRSDDTAVYYCARVLSETGYFYYYYYGMDVWGQGTLVTVSSASTKGPSVFPLAPSSKSTSGGTAALGCLVKDYFPEPVTVSWNSGALTSGVHTFPAVLQSSGLYSLSSVVTVPSSSLGTQTYICNVNHKPSNTKVDKKVEPKSCDKTHTCPPCPAPELLAGPDVFLFPPKPKDTLMISRTPEVTCVVVDVSHEDPEVKFNWYVDGVEVHNAKTKPREEQYNSTYRVVSVLTVLHQDWLNGKEYKCKVSNKALPLPEEKTISKAKGQPREPQVYTLPPSRDELTKNQVSLTCLVKGFYPSDIAVEWESNGQPENNYKTTPPVLDSDGSFFLYSKLTVDKSRWQQGNVFSCSVMHEALHNHYTQKSLSLSPG
chain 2: QAVVTQPPSVSGAPGQRVTISCTGSSSNIGADYNVHWYQLLPGTAPKLLIYGNTNRPSGVPDRFSGSKSGTSASLAITGLQAEDEADYYCQSYDSSLSASVFGGGTKLTVLGQPKAAPSVTLFPPSSEELQANKATLVCLISDFYPGAVTVAWKADSSPVKAGVETTTPSKQSNNKYAASSYLSLTPEQWKSHRSYSCQVTHEGSTVEKTVAPTECS
B2: mAb1-DE (antibody)
chain 1: not shown
chain 2: B1 chain 2
B3: mAb1-ADE (antibody)
chain 1: B1 chain 1 with L339A
chain 2: B1 chain 2
B4: mAb1-ADLE-R292C-V302C (antibody)
chain 1: B1 chain 1 with R301C, V311C
chain 2: B1 chain 2
B5: mAb1 (wt) (IgG1) (antibody)
chain 1: not shown
chain 2: B1 chain 2

Each binder was assayed against T1, human FcγRIIa H131 (assay: FACS, assay 1 n=3).

EC50	Binder
70 nM	B1
106 nM	B2
20 nM	B3
155 nM	B4
341 nM	B5

These binders were tested against T2, human FcγRIIa R131 (assay: FACS, assay 1 n=3).

EC50	Binder
85 nM	B1
198 nM	B2
20 nM	B3
144 nM	B4
303 nM	B5

These binders were tested against T3, huFcγRIIIa_V158 His protein (human, UniProt P08637 17-208) (assay: SPR, His-receptor captured, assay 1 n=3).
T3 construct: also called His-tagged recombinant human FcγRIIIa-V158
T3 sequence (P08637 17-208 F176V limits assumed): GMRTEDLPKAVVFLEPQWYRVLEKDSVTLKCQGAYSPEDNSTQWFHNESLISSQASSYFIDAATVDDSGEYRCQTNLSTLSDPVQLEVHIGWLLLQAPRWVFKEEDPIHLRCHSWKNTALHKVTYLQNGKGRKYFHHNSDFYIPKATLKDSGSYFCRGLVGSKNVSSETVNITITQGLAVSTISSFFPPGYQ

Kd	Binder
77 nM	B1
57 nM	B2
107 nM	B3
258 nM	B4
1620 nM	B5

These binders were tested against T4, huFcγRIIIa_F158 His protein (human, UniProt P08637 17-208) (assay: SPR, His-receptor captured, assay 1 n=3).
T4 sequence (P08637 17-208 limits assumed): as the sequence (P08637 17-208 F176V limits assumed) above, with V160F counted along it

Kd	Binder
94 nM	B1
141 nM	B2
150 nM	B3
296 nM	B4
3870 nM	B5

Each binder was assayed against T3, huFcγRIIIa_V158 His protein (assay: SPR, His-receptor captured, assay 2 n=3).

Kd	Binder
22 nM	B1
17 nM	B2
386 nM	B5

These binders were tested against T4, huFcγRIIIa_F158 His protein (assay: SPR, His-receptor captured, assay 2 n=3).

Kd	Binder
46 nM	B1
48 nM	B2
1330 nM	B5

The binders below were run against T5, human FcRn (human, UniProt P55899 24-297) (assay: SPR pH 6.0, huFcRn captured, assay 1 n=3).
T5 construct: also called huFcRn; recombinant human FcRn
T5 sequence (P55899 24-297): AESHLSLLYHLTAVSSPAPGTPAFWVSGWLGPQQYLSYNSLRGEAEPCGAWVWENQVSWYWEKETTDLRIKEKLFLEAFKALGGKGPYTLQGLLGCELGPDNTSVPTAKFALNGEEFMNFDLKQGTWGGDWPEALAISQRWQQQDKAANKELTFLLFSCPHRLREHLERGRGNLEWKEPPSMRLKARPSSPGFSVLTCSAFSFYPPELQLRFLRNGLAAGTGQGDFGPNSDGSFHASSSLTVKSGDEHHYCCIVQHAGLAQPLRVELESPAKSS

Kd	Binder
993 nM	B1
996 nM	B2
1040 nM	B3
1130 nM	B4
1210 nM	B5

Each binder was assayed against T5, human FcRn (assay: SPR pH 6.0, huFcRn captured, assay 2 n=3).

Kd	Binder
811 nM	B1
761 nM	B2
941 nM	B5

The binders below were run against T6, FcγRIIIa V158 on HEK293T cells (human, UniProt P08637 17-254) (assay: FACS on HEK293T-FcγRIIIa cells, assay 1 n=3).
T6 construct: whole, on cells
T6 sequence (P08637 17-254 F176V): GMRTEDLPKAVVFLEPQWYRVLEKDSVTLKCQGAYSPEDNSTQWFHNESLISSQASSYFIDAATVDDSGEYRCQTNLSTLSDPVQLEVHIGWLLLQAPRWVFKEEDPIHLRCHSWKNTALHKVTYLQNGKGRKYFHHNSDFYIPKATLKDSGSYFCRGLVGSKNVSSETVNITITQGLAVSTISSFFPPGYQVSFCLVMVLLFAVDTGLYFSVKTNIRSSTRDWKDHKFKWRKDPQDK

EC50	Binder
3 nM	B1
2 nM	B2
3 nM	B3
12 nM	B4
186 nM	B5

Each binder was assayed against T7, FcγRIIIa F158 on HEK293T cells (human, UniProt P08637 17-254) (assay: FACS on HEK293T-FcγRIIIa cells, assay 1 n=3).
T7 construct: whole, on cells; also called HEK293T-FcγRIIIa F158
T7 sequence (P08637 17-254): as the sequence (P08637 17-254 F176V) above, with V160F counted along it

EC50	Binder
4 nM	B1
11 nM	B2
9 nM	B3
25 nM	B4
1060 nM	B5

What follows are binders tested against T6, FcγRIIIa V158 on HEK293T cells (assay: FACS on HEK293T-FcγRIIIa cells, assay 2 n=1).

EC50	Binder
5 nM	B1
4 nM	B2
244 nM	B5

The binders below were run against T7, FcγRIIIa F158 on HEK293T cells (assay: FACS on HEK293T-FcγRIIIa cells, assay 2 n=1).

EC50	Binder
7 nM	B1
18 nM	B2
744 nM	B5

The binders below were run against T7, FcγRIIIa F158 on HEK293T cells (assay: FACS on HEK293T-FcγRIIIa cells, assay 1 n=3; cell shifted up, taken as F158).

EC50	Binder
1060 nM	B5

These binders were tested against T7, FcγRIIIa F158 on HEK293T cells (assay: FACS on HEK293T-FcγRIIIa cells, assay 1 n=3; bracketed value under the F158 cell).

EC50	Binder
4.37 nM	B1

These binders were tested against T6, FcγRIIIa V158 on HEK293T cells (assay: FACS on HEK293T-FcγRIIIa cells, assay 1 n=3; bracketed value under the V158 cell).

EC50	Binder
2.71 nM	B1

— patent US20230077531A1 (Sanofi, published 2023)
